Columns and labels:
[1] = target: GDP-tubulin (biotinylated α/β-tubulin heterodimer with GDP-bound β-tubulin) (UniProt Q71U36); experiment: pull-down; supernatant depletion at equilibrium, same assay as for GTP-tubulin but with bead-bound GDP-tubulin; BuGZ construct (or mEGFP control) in solution; fit with Equation S2 for wild-type BuGZ
[2] = target: GTP-tubulin (biotinylated α/β-tubulin heterodimer with GTP-bound β-tubulin) (UniProt Q71U36); experiment: pull-down; supernatant depletion at equilibrium; varying concentrations of biotinylated GTP-tubulin on streptavidin-coated magnetic beads; BuGZ construct (or mEGFP control) in solution, BuGZ 1.19 μM; 4 °C; nocodazole present; depletion from the supernatant measured by immunoblotting
[3] = target: GDP-tubulin (biotinylated α/β-tubulin heterodimer with GDP-bound β-tubulin) (UniProt Q71U36)

- Kd [1]: 54.2 nM
- Kd [2]: 408 nM
- GTP α-32P incorporation into GDP-tubulin at equilibrium, increase relative to controls [3]: 57.4%
Substance: BuGZ-ΔGLEBS (from UniProt Q7ZXV8 1-452) (natural protein)
